According to patent US20130058937A1 (Hoffmann-La Roche, published 2013):

B1: 2+1 IgG Crossfab (N-terminal); VL/VH exchange (MCSP (LC007)/huCD3) (bispecific antibody)
chain 1: DIQMTQSPSSLSASVGDRVTITCRASQDIRNYLNWYQQKPGKAPKLLIYYTSRLESGVPSRFSGSGSGTDYTLTISSLQPEDFATYYCQQGNTLPWTFGQGTKVEIKSSASTKGPSVFPLAPSSKSTSGGTAALGCLVKDYFPEPVTVSWNSGALTSGVHTFPAVLQSSGLYSLSSVVTVPSSSLGTQTYICNVNHKPSNTKVDKKVEPKSCGGGGSGGGGSEVQLQESGPGLVKPSQSLSLTCSVTGYSITSGYYWNWIRQFPGNKLEWMGYITYDGSNNYNPSLKNRISITRDTSKNQFFLKLNSVTTEDTATYYCADFDYWGQGTTLTVSSASTKGPSVFPLAPSSKSTSGGTAALGCLVKDYFPEPVTVSWNSGALTSGVHTFPAVLQSSGLYSLSSVVTVPSSSLGTQTYICNVNHKPSNTKVDKKVEPKSCDKTHTCPPCPAPEAAGGPSVFLFPPKPKDTLMISRTPEVTCVVVDVSHEDPEVKFNWYVDGVEVHNAKTKPREEQYNSTYRVVSVLTVLHQDWLNGKEYKCKVSNKALGAPIEKTISKAKGQPREPQVCTLPPSRDELTKNQVSLSCAVKGFYPSDIAVEWESNGQPENNYKTTPPVLDSDGSFFLVSKLTVDKSRWQQGNVFSCSVMHEALHNHYTQKSLSLSPGK
chain 2: EVQLVESGGGLVQPGGSLRLSCAASGYSFTGYTMNWVRQAPGKGLEWVALINPYKGVSTYNQKFKDRFTISVDKSKNTAYLQMNSLRAEDTAVYYCARSGYYGDSDWYFDVWGQGTLVTVSSASVAAPSVFIFPPSDEQLKSGTASVVCLLNNFYPREAKVQWKVDNALQSGNSQESVTEQDSKDSTYSLSSTLTLSKADYEKHKVYACEVTHQGLSSPVTKSFNRGEC
chain 3: DIVLTQSPSSLSASLGDRVTISCSASQGIRNYLNWYQQRPDGTVKLLIYYTSSLHSGVPSRFSGSGSGTDYSLTISNLEPEDIATYYCQQYSKLPWTFGGGTKLEIKRTVAAPSVFIFPPSDEQLKSGTASVVCLLNNFYPREAKVQWKVDNALQSGNSQESVTEQDSKDSTYSLSSTLTLSKADYEKHKVYACEVTHQGLSSPVTKSFNRGEC
chain 4: not shown
notes: Two MCSP Fabs, one CD3 Crossfab fused to the N-terminus of one Fab; also called anti-MCSP/anti-huCD3; CD3-MCSP 2+1 IgG Crossfab (N-terminal)
B2: CD3-MCSP 1+1 CrossMab; CL/CH1 exchange (MCSP (LC007)/huCD3) (bispecific antibody)
chain 1: B1 chain 3
chain 2: DIQMTQSPSSLSASVGDRVTITCRASQDIRNYLNWYQQKPGKAPKLLIYYTSRLESGVPSRFSGSGSGTDYTLTISSLQPEDFATYYCQQGNTLPWTFGQGTKVEIKSSASTKGPSVFPLAPSSKSTSGGTAALGCLVKDYFPEPVTVSWNSGALTSGVHTFPAVLQSSGLYSLSSVVTVPSSSLGTQTYICNVNHKPSNTKVDKKVEPKSC
chain 3: not shown
chain 4: EVQLQESGPGLVKPSQSLSLTCSVTGYSITSGYYWNWIRQFPGNKLEWMGYITYDGSNNYNPSLKNRISITRDTSKNQFFLKLNSVTTEDTATYYCADFDYWGQGTTLTVSSASTKGPSVFPLAPSSKSTSGGTAALGCLVKDYFPEPVTVSWNSGALTSGVHTFPAVLQSSGLYSLSSVVTVPSSSLGTQTYICNVNHKPSNTKVDKKVEPKSCDKTHTCPPCPAPEAAGGPSVFLFPPKPKDTLMISRTPEVTCVVVDVSHEDPEVKFNWYVDGVEVHNAKTKPREEQYNSTYRVVSVLTVLHQDWLNGKEYKCKVSNKALGAPIEKTISKAKGQPREPQVCTLPPSRDELTKNQVSLSCAVKGFYPSDIAVEWESNGQPENNYKTTPPVLDSDGSFFLVSKLTVDKSRWQQGNVFSCSVMHEALHNHYTQKSLSLSPGK
B3: CD3-MCSP 1+1 IgG Crossfab (N-terminal) (SEQ ID NOs 1, 3, 4, 86) (bispecific antibody)
chain 1: B1 chain 1
chain 2: B1 chain 2
chain 3: B1 chain 3
chain 4: not shown
B4: 2+1 IgG Crossfab (N-terminal), inverted; CL/CH1 exchange (MCSP (LC007)/huCD3) (bispecific antibody)
chain 1: B1 chain 3
chain 2: B2 chain 2
chain 3: B2 chain 4
chain 4: not shown
notes: also called the inverted construct; CD3/MCSP 2+1 IgG Crossfab (N-terminal), inverted

How the values were obtained:
[1] = target: T1, human MCSP (Melanoma-associated Chondroitin Sulfate Proteoglycan), expressed on tumor cells (human, UniProt Q6UVK1 30-2322); assay: FACS on WM266-4 cells, FITC/PE anti-human Fc secondary
T1 construct: whole, on cells; also called huMCSP; Chondroitin Sulfate Proteoglycan 4
T1 sequence (Q6UVK1 30-2322): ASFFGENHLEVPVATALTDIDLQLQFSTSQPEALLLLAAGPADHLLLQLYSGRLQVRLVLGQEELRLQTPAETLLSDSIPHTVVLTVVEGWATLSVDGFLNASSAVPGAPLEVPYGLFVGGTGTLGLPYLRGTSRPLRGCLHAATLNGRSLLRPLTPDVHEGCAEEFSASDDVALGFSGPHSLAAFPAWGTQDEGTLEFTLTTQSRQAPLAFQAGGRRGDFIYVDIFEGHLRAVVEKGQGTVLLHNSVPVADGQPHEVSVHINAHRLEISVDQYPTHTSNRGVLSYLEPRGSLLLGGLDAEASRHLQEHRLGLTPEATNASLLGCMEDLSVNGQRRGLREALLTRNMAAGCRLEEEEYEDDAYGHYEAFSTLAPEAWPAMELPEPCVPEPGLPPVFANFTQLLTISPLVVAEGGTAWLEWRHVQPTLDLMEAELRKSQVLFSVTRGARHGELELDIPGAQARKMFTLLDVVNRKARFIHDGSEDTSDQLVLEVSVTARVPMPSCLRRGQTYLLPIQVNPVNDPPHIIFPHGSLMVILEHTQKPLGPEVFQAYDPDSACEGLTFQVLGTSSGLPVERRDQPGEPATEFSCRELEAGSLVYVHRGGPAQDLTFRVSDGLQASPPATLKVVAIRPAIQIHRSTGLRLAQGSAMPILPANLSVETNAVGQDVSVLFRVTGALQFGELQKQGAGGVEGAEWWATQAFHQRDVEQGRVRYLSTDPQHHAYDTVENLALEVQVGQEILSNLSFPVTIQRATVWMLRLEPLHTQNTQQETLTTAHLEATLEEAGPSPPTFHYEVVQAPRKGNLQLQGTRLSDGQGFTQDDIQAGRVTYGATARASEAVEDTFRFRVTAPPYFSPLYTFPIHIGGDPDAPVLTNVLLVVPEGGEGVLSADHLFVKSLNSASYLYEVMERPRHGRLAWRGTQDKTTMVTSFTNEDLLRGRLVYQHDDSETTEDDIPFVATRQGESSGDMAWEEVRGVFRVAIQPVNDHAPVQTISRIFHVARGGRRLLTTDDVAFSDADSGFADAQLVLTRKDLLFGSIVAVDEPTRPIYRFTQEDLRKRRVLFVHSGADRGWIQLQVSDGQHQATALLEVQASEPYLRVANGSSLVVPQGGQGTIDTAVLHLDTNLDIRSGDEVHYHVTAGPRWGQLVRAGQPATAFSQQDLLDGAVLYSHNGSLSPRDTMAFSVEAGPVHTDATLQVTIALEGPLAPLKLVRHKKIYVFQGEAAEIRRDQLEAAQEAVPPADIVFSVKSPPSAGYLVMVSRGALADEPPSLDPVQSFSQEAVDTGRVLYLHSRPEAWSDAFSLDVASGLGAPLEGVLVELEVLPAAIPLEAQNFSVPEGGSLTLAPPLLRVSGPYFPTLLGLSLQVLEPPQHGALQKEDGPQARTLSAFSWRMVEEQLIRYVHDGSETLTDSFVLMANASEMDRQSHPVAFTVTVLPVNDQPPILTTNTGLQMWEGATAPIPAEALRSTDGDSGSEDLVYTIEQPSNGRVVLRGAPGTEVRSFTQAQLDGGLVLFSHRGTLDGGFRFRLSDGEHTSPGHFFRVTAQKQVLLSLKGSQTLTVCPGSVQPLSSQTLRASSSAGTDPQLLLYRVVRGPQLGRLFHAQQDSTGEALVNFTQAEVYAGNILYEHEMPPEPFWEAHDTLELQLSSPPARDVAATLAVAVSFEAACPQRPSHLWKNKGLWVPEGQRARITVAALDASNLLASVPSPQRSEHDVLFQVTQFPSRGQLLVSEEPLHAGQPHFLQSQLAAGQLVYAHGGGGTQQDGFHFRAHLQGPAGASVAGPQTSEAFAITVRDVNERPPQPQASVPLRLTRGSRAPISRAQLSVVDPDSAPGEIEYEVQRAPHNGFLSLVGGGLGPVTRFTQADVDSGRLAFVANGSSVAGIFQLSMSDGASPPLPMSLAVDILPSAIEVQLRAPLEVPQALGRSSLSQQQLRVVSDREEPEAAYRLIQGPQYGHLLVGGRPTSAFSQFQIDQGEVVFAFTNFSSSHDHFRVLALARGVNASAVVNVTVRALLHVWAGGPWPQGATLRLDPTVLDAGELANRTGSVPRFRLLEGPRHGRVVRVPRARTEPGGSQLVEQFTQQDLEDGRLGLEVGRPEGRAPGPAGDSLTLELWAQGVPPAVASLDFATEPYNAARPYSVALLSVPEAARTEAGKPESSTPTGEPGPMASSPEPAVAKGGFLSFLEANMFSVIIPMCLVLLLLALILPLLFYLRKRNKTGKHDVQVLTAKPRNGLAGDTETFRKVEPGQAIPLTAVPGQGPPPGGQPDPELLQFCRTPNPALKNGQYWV
Description: (§1) Binding of the different bispecific constructs to CD3 on Jurkat (ATCC #TIB-152) cells, and the respective tumor antigen MCSP on WM266-4 cells or CEA on LS174-T cells, was determined by FACS. Briefly, cells were harvested, counted and checked for viability. 0.15-0.2 million cells per well were plated in a round-bottom 96-well plate and incubated with the indicated concentration of the bispecific constructs and controls for 30 min at 4° C. For a better comparison, the constructs were normalized to same molarity. Cells were washed with PBS containing 0.1% BSA once. After incubation with a FITC- or PE-conjugated secondary antibody for 30 min at 4° C., bound constructs were detected using a FACSCantoII (Software FACS Diva). A FITC- or PE-conjugated AffiniPure F(ab′)2 Fragment goat anti-human IgG Fcγ Fragment Specific (Jackson Immuno Research Lab #109-096-098/working solution 1:20, or #109-116-170/working solution 1:80, respectively) was used. Unless otherwise indicated, cells were fixed with 100 μl/well fixation buffer (BD #554655) for 15 min at 4° C. in the dark, centrifuged for 6 min at 400×g and kept in 200 μl/well PBS containing 0.1% BSA until analysis. EC50 values were calculated using the GraphPad Prism 5 software.
While binding of both construct to MCSP on cells was comparably good, the binding of the “inverted” construct to CD3 was reduced compared to the other construct.

[2] = target: T1, human MCSP (Melanoma-associated …); assay: cell-based or functional assay
[3] = target: T2, human CD3, expressed by Jurkat cells (human, UniProt P07766 23-207); assay: FACS on Jurkat cells, FITC/PE anti-human Fc secondary
T2 construct: whole, on cells; The assay presents the whole CD3 complex on Jurkat T cells; also called human CD3 on cells; huCD3
T2 sequence (P07766 23-207): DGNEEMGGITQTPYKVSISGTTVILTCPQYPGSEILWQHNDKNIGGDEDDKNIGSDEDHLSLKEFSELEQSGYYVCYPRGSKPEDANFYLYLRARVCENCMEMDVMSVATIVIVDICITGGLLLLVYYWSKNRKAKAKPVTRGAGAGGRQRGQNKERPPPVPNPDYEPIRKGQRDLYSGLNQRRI
Description: as §1, with “Unless otherwise indicated, cells were fixed with 100 μl/well fixation buffer (BD #554655) for 15 min at 4° C. in the dark, centrifuged for 6 min at 400×g and kept in 200 μl/well PBS containing 0.1% BSA until analysis.” left out
As a control, the equivalent maximum concentration of the corresponding IgGs and the background staining due to the labeled 2ndary antibody (goat anti-human FITC-conjugated AffiniPure F(ab′)2 Fragment, Fcγ Fragment-specific, Jackson Immuno Research Lab #109-096-098) were assessed as well. […]

Binder | EC50 [1] | EC50 of killing (LDH release) of MV-3 cells, human PBMCs, E:T 10:1, 21 h [2] | EC50 of killing (LDH release) of WM266-4 cells, human PBMCs, E:T 10:1, 21 h [2] | EC50 [3]
B1 | 950 pM | 9.2 pM | 33.1 pM | 1660 pM
B2 | – | 88.4 pM | 53.9 pM | –
B3 | – | 40.9 pM | 28.4 pM | –
B4 | 570 pM | – | – | 6100 pM
